Test results from paper PMC12465037, “Defective targeting of PNPLA1 to lipid droplets causes ichthyosis in ABHD5-syndromic epidermal differentiation disorder” (Journal of Lipid Research, 2025).

B1: Xpress-tagged human ABHD5 p.E260K (natural protein, UniProt Q8WTS1 1-349, looked up)
chain: MAAEEEEVDSADTGERSGWLTGWLPTWCPTSISHLKEAEEKMLKCVPCTYKKEPVRISNGNKIWTLKFSHNISNKTPLVLLHGFGGGLGLWALNFGDLCTNRPVYAFDLLGFGRSSRPRFDSDAEEVENQFVESIEEWRCALGLDKMILLGHNLGGFLAAAYSLKYPSRVNHLILVEPWGFPERPDLADQDRPIPVWIRALGAALTPFNPLAGLRIAGPFGLSLVQRLRPDFKRKYSSMFEDDTVTEYIYHCNVQTPSGKTAFKNMTIPYGWAKRPMLQRIGKMHPDIPVSVIFGARSCIDGNSGTSIQSLRPHSYVKTIAILGAGHYVYADQPEEFNQKVKEICDTVD
notes: human ABHD5, full-length open reading frame of NM_016006.6 with the patient mutation p.E260K; Disease-associated (ABHD5-sEDD) missense variant made by site-directed mutagenesis; source: HEK293T, transfected (pcDNA4/HisMaxC), in lysate
B2: Xpress-tagged human ABHD5 p.R297N (natural protein, UniProt Q8WTS1 1-349, looked up)
chain: MAAEEEEVDSADTGERSGWLTGWLPTWCPTSISHLKEAEEKMLKCVPCTYKKEPVRISNGNKIWTLKFSHNISNKTPLVLLHGFGGGLGLWALNFGDLCTNRPVYAFDLLGFGRSSRPRFDSDAEEVENQFVESIEEWRCALGLDKMILLGHNLGGFLAAAYSLKYPSRVNHLILVEPWGFPERPDLADQDRPIPVWIRALGAALTPFNPLAGLRIAGPFGLSLVQRLRPDFKRKYSSMFEDDTVTEYIYHCNVQTPSGETAFKNMTIPYGWAKRPMLQRIGKMHPDIPVSVIFGANSCIDGNSGTSIQSLRPHSYVKTIAILGAGHYVYADQPEEFNQKVKEICDTVD
notes: human ABHD5, full-length open reading frame of NM_016006.6 with the patient mutation p.R297N; Disease-associated (ABHD5-sEDD) missense variant made by site-directed mutagenesis; source: HEK293T, transfected (pcDNA4/HisMaxC), in lysate
B3: Xpress-tagged human ABHD5 p.Q130P (natural protein, UniProt Q8WTS1 1-349, looked up)
chain: MAAEEEEVDSADTGERSGWLTGWLPTWCPTSISHLKEAEEKMLKCVPCTYKKEPVRISNGNKIWTLKFSHNISNKTPLVLLHGFGGGLGLWALNFGDLCTNRPVYAFDLLGFGRSSRPRFDSDAEEVENPFVESIEEWRCALGLDKMILLGHNLGGFLAAAYSLKYPSRVNHLILVEPWGFPERPDLADQDRPIPVWIRALGAALTPFNPLAGLRIAGPFGLSLVQRLRPDFKRKYSSMFEDDTVTEYIYHCNVQTPSGETAFKNMTIPYGWAKRPMLQRIGKMHPDIPVSVIFGARSCIDGNSGTSIQSLRPHSYVKTIAILGAGHYVYADQPEEFNQKVKEICDTVD
notes: human ABHD5, full-length open reading frame of NM_016006.6 with the patient mutation p.Q130P; Disease-associated (ABHD5-sEDD) missense variant made by site-directed mutagenesis; source: HEK293T, transfected (pcDNA4/HisMaxC), in lysate
B4: Xpress-tagged human ABHD5 p.G271R (natural protein, UniProt Q8WTS1 1-349, looked up)
chain: MAAEEEEVDSADTGERSGWLTGWLPTWCPTSISHLKEAEEKMLKCVPCTYKKEPVRISNGNKIWTLKFSHNISNKTPLVLLHGFGGGLGLWALNFGDLCTNRPVYAFDLLGFGRSSRPRFDSDAEEVENQFVESIEEWRCALGLDKMILLGHNLGGFLAAAYSLKYPSRVNHLILVEPWGFPERPDLADQDRPIPVWIRALGAALTPFNPLAGLRIAGPFGLSLVQRLRPDFKRKYSSMFEDDTVTEYIYHCNVQTPSGETAFKNMTIPYRWAKRPMLQRIGKMHPDIPVSVIFGARSCIDGNSGTSIQSLRPHSYVKTIAILGAGHYVYADQPEEFNQKVKEICDTVD
notes: human ABHD5, full-length open reading frame of NM_016006.6 with the patient mutation p.G271R; Disease-associated (ABHD5-sEDD) missense variant made by site-directed mutagenesis; source: HEK293T, transfected (pcDNA4/HisMaxC), in lysate
B5: Xpress-tagged human ABHD5 p.S115G (natural protein, UniProt Q8WTS1 1-349, looked up)
chain: MAAEEEEVDSADTGERSGWLTGWLPTWCPTSISHLKEAEEKMLKCVPCTYKKEPVRISNGNKIWTLKFSHNISNKTPLVLLHGFGGGLGLWALNFGDLCTNRPVYAFDLLGFGRGSRPRFDSDAEEVENQFVESIEEWRCALGLDKMILLGHNLGGFLAAAYSLKYPSRVNHLILVEPWGFPERPDLADQDRPIPVWIRALGAALTPFNPLAGLRIAGPFGLSLVQRLRPDFKRKYSSMFEDDTVTEYIYHCNVQTPSGETAFKNMTIPYGWAKRPMLQRIGKMHPDIPVSVIFGARSCIDGNSGTSIQSLRPHSYVKTIAILGAGHYVYADQPEEFNQKVKEICDTVD
notes: human ABHD5, full-length open reading frame of NM_016006.6 with the patient mutation p.S115G; Disease-associated (ABHD5-sEDD) missense variant made by site-directed mutagenesis; source: HEK293T, transfected (pcDNA4/HisMaxC), in lysate
B6: Xpress-tagged human ABHD5 p.H82R (natural protein, UniProt Q8WTS1 1-349, looked up)
chain: MAAEEEEVDSADTGERSGWLTGWLPTWCPTSISHLKEAEEKMLKCVPCTYKKEPVRISNGNKIWTLKFSHNISNKTPLVLLRGFGGGLGLWALNFGDLCTNRPVYAFDLLGFGRSSRPRFDSDAEEVENQFVESIEEWRCALGLDKMILLGHNLGGFLAAAYSLKYPSRVNHLILVEPWGFPERPDLADQDRPIPVWIRALGAALTPFNPLAGLRIAGPFGLSLVQRLRPDFKRKYSSMFEDDTVTEYIYHCNVQTPSGETAFKNMTIPYGWAKRPMLQRIGKMHPDIPVSVIFGARSCIDGNSGTSIQSLRPHSYVKTIAILGAGHYVYADQPEEFNQKVKEICDTVD
notes: human ABHD5, full-length open reading frame of NM_016006.6 with the patient mutation p.H82R; Disease-associated (ABHD5-sEDD) missense variant made by site-directed mutagenesis; source: HEK293T, transfected (pcDNA4/HisMaxC), in lysate

Target: T1, 3xFLAG-tagged full-length human PNPLA1, partially purified (pcDNA4/HisMaxC-mut-3xFLAG-hsPNPLA1) (human, UniProt Q8N8W4-1 1-532)
T1 construct: human PNPLA1, full-length open reading frame of NM_001145717.1; also called 3xFLAG-PNPLA1; source: Expi293F, transfected, partially purified (IMAC, HisTrap HP)
T1 sequence (looked up): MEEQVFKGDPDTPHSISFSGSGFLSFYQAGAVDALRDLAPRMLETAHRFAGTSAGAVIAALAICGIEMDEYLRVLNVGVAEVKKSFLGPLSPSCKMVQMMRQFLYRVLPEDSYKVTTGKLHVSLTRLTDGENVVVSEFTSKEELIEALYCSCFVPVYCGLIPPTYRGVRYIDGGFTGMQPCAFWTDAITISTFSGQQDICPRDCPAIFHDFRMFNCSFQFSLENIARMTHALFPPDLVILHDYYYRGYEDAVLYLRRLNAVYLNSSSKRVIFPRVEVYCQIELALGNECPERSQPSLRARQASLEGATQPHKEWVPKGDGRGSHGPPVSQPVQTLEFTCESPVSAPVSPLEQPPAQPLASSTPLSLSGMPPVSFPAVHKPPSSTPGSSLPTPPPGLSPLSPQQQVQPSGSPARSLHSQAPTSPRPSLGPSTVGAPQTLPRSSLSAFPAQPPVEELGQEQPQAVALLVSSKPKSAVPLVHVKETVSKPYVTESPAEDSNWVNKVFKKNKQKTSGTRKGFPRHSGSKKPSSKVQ
Assay: ELISA; solid-phase interaction assay: 1.8 μg/well of purified 3xFLAG-PNPLA1, PLIN2 or PLIN3 coated on MaxiSorp plates (50 mM Tris-HCl pH 8.0, 200 mM NaCl); 40 μg HEK293T lysate with Xpress-tagged ABHD5 variants in TBS with 2% BSA and 0.05% Tween 20, overnight at 4°C; anti-Xpress and HRP secondary antibody, TMB, absorbance at 620 nm, background subtracted and normalised to expression
Conditions: one partner purified

Row | Binder | change of PNPLA1 binding (normalised absorbance) against wild-type ABHD5
1 | B1 | 25%
2 | B2 | -87%
3 | B3 | 16%
4 | B4 | -59%
5 | B5 | -17%
6 | B6 | 44%
